Consider 41 sequences from the nanobody polyreactivity screen of Harvey et al. (2022).

This data set is described as follows: yeast display, Sf9 membrane polyspecificity reagent, FACS + sequencing; frameworks hold sequencing errors. The method in brief: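 Nanobodies came from a synthetic yeast display library in Saccharomyces cerevisiae BJ5465, induced with galactose for 36–48 hours and stained for 1 hour at 4 °C with 10% biotinylated, detergent-solubilized Sf9 membrane reagent. Cells were enriched on streptavidin microbeads and then FACS-sorted, with low and high (top ~1%) gates set on anti-HA fluorescence for expression and streptavidin fluorescence for reagent binding. Each polyreactivity label reflects the gate a clone came from. Genes were amplified by colony PCR, sequenced by MiSeq 2 × 250 and filtered by CDR length.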
“QVQLVESGGGLVQAGGSLRLSCAASGSTFAKYVMGWYRQAPGKERELVAAISRRGSSTYYADSVKGRFTISRDNAKNTVYLQMNSLKPEDTAVYYCAARFRYSGFEGMDYWGQGTQVTVSS”: the “polyreactivity (PSR sort gate)” value is “high polyreactivity”.

On to “QVQLVESWGGLVQAGGSLRLSCSASGRTLRGYAMGWYRQAPGKERELVAAISKGGGSTFYADSVKGRFTISRDNAKNTVYLLMISLKPEDTAVYYCAARARYTRRGRHYDYWGQGTQVTVSS”, for which the “polyreactivity (PSR sort gate)” value is recorded as “high polyreactivity”.

For “QVQLVESGGGLVQAGGSLRLSCAASGRIFRYYAMGWYRQAPGKERELVAAITRGGSTNYADSVKGRFTISRDNAKNTVYLLMNSLKPEVTAVDYCNAPYWKSRFRAYYHWGQGTQVTVSS”, the “polyreactivity (PSR sort gate)” value is recorded as “high polyreactivity”.

Consider “QVQLVESGGGLVQPGGSLRLSCAASGSIFAYNAMGWSRQAPGKERELVAAISSGGRTKYADSVKGRFTITRDNAKITVYFQMNRQKPEDTAVYYCAAESYTGKYSWVWKWYDYWGQGTQVSVSS”, for which the “polyreactivity (PSR sort gate)” value was “low polyreactivity”.

As for “QVQLVESGGGLVQAGGSLRLSCAASGRIFPRYVMGWYRQAPGKERELVAAITYRGGSTSYADSVKGRFTISRDNAKNTVYLQMNSLKPEDTAVYYCNAKSLYYNYAYDYWGQGTQVTVSS”, the “polyreactivity (PSR sort gate)” value was “high polyreactivity”.

In the case of “QVHLVASGGGLVQAGGSLRLSCAASGSIFRRYAKGSYRQAPGKERELGAGISSGGYTNYAASVKGPFTISRDNAKNNVYLQRYSLKPEDTAVYYCAANQYRDVRYRPVDYWGQGTQVTVSS”, the “polyreactivity (PSR sort gate)” value is “high polyreactivity”.

On to “QVQLVESGVGLVQAGGSLRLSCAASGSIFVNYAMGWYRQAPWKERELVAAITLRGGSTFYADSVKGRFTISRDNAKNTVYLQMHSLKPEDTAVYYCAASSLRYRAYKSLFDFWGQGTQVTVSS”, for which the “polyreactivity (PSR sort gate)” value is recorded as “low polyreactivity”.

As for “QVQLVESRGGLVQAGGSLRLSCAASGLIFASYAMGWNRQAPGKERELVAAISWSGGSTYYADSVKGRFTISRDNAKNTVYLQMNSLKPEDTAVYYCAAKRYAYGSLDYWGQGTQLTVSS”, the “polyreactivity (PSR sort gate)” value is listed as “high polyreactivity”.

Take “QVQLVESGGGLVQAGGSLRLSCAASGIIFGINAMGWYRQAPGKERELVATITSGGGTNYADSVKGRFTISRDNAKNTVYLQMNSLKPEDTAVYYCAKPTYRFYWGDFDYWGQGTQVTVSS”: the “polyreactivity (PSR sort gate)” value was “low polyreactivity”.

In the case of “QVQHEESGGGLFQAGGSLRLICAASGSIFDYYAMGWYRQAPGKERELVSTYYADSVKVRFTISRDNAKNTVYLQLNSLKPEDTAVYFCAKDRGTTGIPDGPAASLYGYVYWGQGTQVTVSS”, the “polyreactivity (PSR sort gate)” value is listed as “low polyreactivity”.

With “QVQLVESGGGLVQAGGSLRLSCAASGRIFSSYAMGWYRKAPGKERELVAAISGSGGRTYYADSVKGRFTISRDNAKNTVYLQMNSLKPEDTAVYYCNARRRSPYSTGVAYDYWGQVTQVTVSS”, the “polyreactivity (PSR sort gate)” value was “high polyreactivity”.

For “QVQLVESGGGLVQAGGSLRLSCAASGLTFPYYAMGWYRQAPGKERELVAVITSGGRTYYADSVKGRFTISRDNAKNTVYLQMNSLKPEDTAVYYCAVGWRTIYGSDGDYWGQGTQVTVST”, the “polyreactivity (PSR sort gate)” value was “high polyreactivity”.

As to “QVQLVESGGGLVQAGGSRRLSCAASGRTFEGNAMGWYRPAPGKERELVAAISTSGGRTYYADSVKGRFTISRDNAKNTVYLQLNSLIPEDTAVYDCNTDQYSPYEYSSFDSWGQCTQVTVSS”, the “polyreactivity (PSR sort gate)” value is on record as “low polyreactivity”.

On to “QVQLVESGGGLVQAGGSLRLSCAASGFTFYQYAMGWYRQAPGKERELVAAITWNGGSTFYADSVKGRFTISRDNAKNTVYLQMNSLKPEDTAVYYCAARQYFSSYYEYDYWGQGTQVTVSS”, for which the “polyreactivity (PSR sort gate)” value was “high polyreactivity”.

As for “QVQLVESGGGLVQAGGSLRLSCAASGRTFWRYAMGWYIQAPGKERELVAAISSSGITYYADSVKGRFTISRDNAKNTVYLQMNSLKPEDTAVYYCAVRWGRGFWGQGTQVTVSS”, the “polyreactivity (PSR sort gate)” value was “high polyreactivity”.

On to “QVQLVESGGGLVQAGGSLRLSCAASGFIFYRYARGWYRQAPGQERELVAAITTSGARTYYADSVKGRFTISRDNAKNTVYLLMNSLKPEDTAGYSCAASPTPRVKMDYWGQGTQVTVSS”, for which the “polyreactivity (PSR sort gate)” value is “low polyreactivity”.

As to “QVQLVESGGGLVQAGGSLRLSCAASGRTFYSYAMGWYRQAPGKERELVAAITWRGVRTYYADSVKGRFTISRDNAKNTVYLQMNSLKPEDTAVYYCAAGGVRTRSWDTSLINRYGYWGQGTQVTVSS”, the “polyreactivity (PSR sort gate)” value is listed as “high polyreactivity”.

For “QVQLVESGGGLVKAGGSLRLSCAASGRTFGYNAMGWYRQAPGKEREFVAAISWSGGRTYYADSVKGRFTISRDNAKNTVYLQMNSLKPEDTAVYYCAAAAPHLSAKMDYWGQGTQVTVSS”, the “polyreactivity (PSR sort gate)” value was “low polyreactivity”.

With “QVQLVESGGGLVQAGGSLRLSCAASGSTFGGNAMGWYRQAPGKERELVAAISSSGGSTYYADSVKGRFTISRDNAKYTVYLQMNSLKPEDSAVYYCAALYHWTYDYWGLGTQVTVSS”, the “polyreactivity (PSR sort gate)” value was “low polyreactivity”.

With “QVQLVESGGGIVQAGGSLRVSCVSSGRTCSRYAMGWSRQAPGKDRELVAAISRRGGSTYYADSVKGRFTISRDNAKNTVYLQMKSLKREDTAVYYCAAGYITWGSGNWVVTPYDYWGQGSQVTVSS”, the “polyreactivity (PSR sort gate)” value was “high polyreactivity”.

Regarding “QVQLVESGGGLVQAGGSLRLSCAASGRIFQGYAMGWYRPAPGKERELGASIRTGGTTNYADSVKGRFTISRDNAKNTVYLQMNSLTPEDTAVYYCAKRYYGWYGNFDYWGQGTQVTVSA”, the “polyreactivity (PSR sort gate)” value is recorded as “high polyreactivity”.

“QVQLVESGGGLVQAGGSLRLSCAAPGNTFQYYAMGWSRQAPGKEREFVAAISRRGGSTYYADSVKGRFTISRDNAKNTVYLQMNSLKPEDTAVYYCNKVIFLSQSSYSFLYAYDYWGQGTQVTVSS”: the “polyreactivity (PSR sort gate)” value is recorded as “high polyreactivity”.

For “QVQLVESGGGLVQAGCSLRLSCAASGFIFGRYTMGWYRQAPGKERELVAAISGSDVSTYYADSVKGRFTISRDNAKNTVYLQMNSLKPEDTAVYYCNAGPWWYLHEYDYWGQGTQVTVSS”, the “polyreactivity (PSR sort gate)” value is recorded as “low polyreactivity”.

With “QVQLVESGGGLVQAGGSLRLSCAASGNIFSSYVMGWYRHAPGKERELVAAISSRGGSTYYADSVKGRFTISRDNAKNTVYLQMNSLKPEDTAVYYCAARYLSWYDWGQGTQVTVSS”, the “polyreactivity (PSR sort gate)” value is recorded as “high polyreactivity”.

Regarding “QVQLVESGGGLVQAGGSLRLSCAASGLTFTSYAMGWSRPAPGKERELVAAIDWSGGRTYYADSVKGRFTISRDNAKNTVYLQMNSLKPEDTAVYYCAAYSRNRALRFNYWGQGTQVTVSS”, the “polyreactivity (PSR sort gate)” value is “high polyreactivity”.

As to “QDQLVESGGGLVQAGGSLRLSCAASGSLFDLYAMGWYRQAPGKERELVAAISWSDSRTYYADSVKGRFTISRDNAKNTVYLQMNSLKPEDTAVYYCAADYRYPDNYGGYDYWGQGTQVTVSS”, the “polyreactivity (PSR sort gate)” value is on record as “low polyreactivity”.

As for “QVQLVESGGGLVQAGGSLRLSCAASGSIFSKYAMGWYRQAPGKERELVAAISISDGNTYYADSVKGRFTISRDNAKNTVYLQMNSLKPEDTAVYYCATVGSEDGDPGFDYWGQGTQVTVSS”, the “polyreactivity (PSR sort gate)” value is “low polyreactivity”.

Consider “QVQLVESCGGIVQAGGSLRLSCAASGRIFGENAMGWYRQEPGKEREFVAVISISDASTYYADSVKGRFTISRDNAKNTVFFQMNSLKPEDTAVYYCAAEGPDSYSMDYWGQGTQVTVSS”, for which the “polyreactivity (PSR sort gate)” value is “low polyreactivity”.

As for “QVQLVESGGGLVQAGGSLRLSCAASGRIFYRNTMGWYRQAPGKERELVAPITSSGASTYYADSVKGRFTISRDIAKNTVYLQMNSLKPEDTAVYFCGAQPYVEGTKRYYWGQGTQVTVSS”, the “polyreactivity (PSR sort gate)” value is reported as “high polyreactivity”.

For “QVQLVESGGGLVQAGGSLRLSCAASGSTFRTYAMGWYRQAPGQERELVAASDSSGGNTYYADSVKGRCTISRDPAKNTVYLQMNSLKPEDTAVYYCARESVTYFWYYTPEVDYWGQGTQVTVSS”, the “polyreactivity (PSR sort gate)” value was “low polyreactivity”.

As to “QVQLVESVGGLVQAGGSLRLSCAASGRIFGYNAMGWYRQAPGKEWELVAGITSVGRTYYADSVNGRFTISRDNAKNTVYLQMNSLKPEDTAVYYCNAASYSLAVTAEFEDMDYWGQGTQVTVSS”, the “polyreactivity (PSR sort gate)” value was “low polyreactivity”.

As for “QVQLVESGGGLVQAGGSLRLSCAASGRIFYFYAMVWYRQAPGKERELVAAISTSGGSTYYADSVKGRFTISRDNAKNTVYLQMNSLKPEDTAVYYCAARFRYYGSEYDYWGQGTQVTVSS”, the “polyreactivity (PSR sort gate)” value is “low polyreactivity”.

For the sequence “QVQLVESGGGLVQAGGSLRLSCAASGLIYTPYAMGWYRQAPGKERELVAAINYGGSRTYYADSVKGRFTISRDNAKNTVYLQMNSLKQEDTAVYYCNKPGNYVWRRSWDFDYWGQGTQVTVSW”, the “polyreactivity (PSR sort gate)” value is “high polyreactivity”.

As to “QVQLVESGGGLVQAGGSLRLSSAASGRTFYRHAMGWYRQAPGKERELVAASTRSGSTNYADSVKGRFTISRDNAKNTVYLQMNSLKPEDTADYYCAAKFFRNTYSYGMDYWGQGTQVTVSS”, the “polyreactivity (PSR sort gate)” value is listed as “high polyreactivity”.

In the case of “QVQLVESGGGLVQAGGSLRLSCAASGSTFQANAMGWYRQAPGKERELVAAISSRGGITYYADSVKGRFTISRDNAKNTVYLQMNSLKPEYTAVYYSNALPRCTYRQGLGVRLYYWGQGTQVTVSS”, the “polyreactivity (PSR sort gate)” value is “high polyreactivity”.

Take “QVQLVESGGCLVQAGGTLRLSCDASGITFSRNTMGWYRQAPGKERELVAAITLRGGGRTYYADSVKGRFTISRDNAKNTDYLQLNSLNPEDTAVYYCARVYSSEKAYGYWGQGTQVTVSS”: the “polyreactivity (PSR sort gate)” value is “high polyreactivity”.

For the sequence “QVQLVESGGGLVQAGGSLRLSCAASGFTFYSNDMGWYRQAPGKERELVAAISYSGGSTYYADSVKGRFTISRDNAKNTVYLQMKRLNPEDTAVYYCAAGGLQQGDYWGQGTQVTVSS”, the “polyreactivity (PSR sort gate)” value is “low polyreactivity”.

For the sequence “QVQLVESGGGLVQAGGSLRLSCAASGSTFRLYAMGWYRQAPGKERELVASITTGGSTYYADSVKGRFTISRDNAKNTVYLQMNSLKPEDTAVYYCAAEEYWEMDYWGQGTQVTVSS”, the “polyreactivity (PSR sort gate)” value is reported as “low polyreactivity”.

For the sequence “QVQLVESGGGLVQAGGSLRLSCAASGGTFYYYAMGWYRQPPGKERELGAAITGTGGRTYYADSVKGRFTISRDNAKNTVSLQMNSLKPEDTAVYYCATDALYGSGYDYWGQGTQVTVSS”, the “polyreactivity (PSR sort gate)” value is recorded as “high polyreactivity”.

“QVQLVESGGGLVQAGGSHRLRCAASGITLLLNAMGWYRQAPGKERELVAAISEGGGSTYYAHSVKGRFTISRDNAKNTVYLQMNSLKPEDTAVYYCNADRVYRVPSEYDSWGQGTQVTVSS”: the “polyreactivity (PSR sort gate)” value is listed as “low polyreactivity”.

On to “QVQLVESGGGLVQAGGSLRLSCAASGGIFLGNAMGWYRQAPGKERELVAAISWSGGSTYYADSVKGRFTISRDNAKNTVYLQMNSLKPEDTAVYYCAAAWNRGKYNYYYWGQGTQVTVSS”, for which the “polyreactivity (PSR sort gate)” value was “high polyreactivity”.
